Experimental data published in IntAct's records for PubMed 23871486.

B1: Cytotoxic and regulatory T-cell molecule (Homo sapiens), O95727-1 (parent)
chain: MWWRVLSLLAWFPLQEASLTNHTETITVEEGQTLTLKCVTSLRKNSSLQWLTPSGFTIFLNEYPALKNSKYQLLHHSANQLSITVPNVTLQDEGVYKCLHYSDSVSTKEVKVIVLATPFKPILEASVIRKQNGEEHVVLMCSTMRSKPPPQITWLLGNSMEVSGGTLHEFETDGKKCNTTSTLIIHTYGKNSTVDCIIRHRGLQGRKLVAPFRFEDLVTDEETASDALERNSLSSQDPQQPTSTVSVTEDSSTSEIDKEEKEQTTQDPDLTTEANPQYLGLARKKSGILLLTLVSFLIFILFIIVQLFIMKLRKAHVIWKKENEVSEHTLESYRSRSNNEETSSEEKNGQSSHPMRCMNYITKLYSEAKTKRKENVQHSKLEEKHIQVPESIV
partner: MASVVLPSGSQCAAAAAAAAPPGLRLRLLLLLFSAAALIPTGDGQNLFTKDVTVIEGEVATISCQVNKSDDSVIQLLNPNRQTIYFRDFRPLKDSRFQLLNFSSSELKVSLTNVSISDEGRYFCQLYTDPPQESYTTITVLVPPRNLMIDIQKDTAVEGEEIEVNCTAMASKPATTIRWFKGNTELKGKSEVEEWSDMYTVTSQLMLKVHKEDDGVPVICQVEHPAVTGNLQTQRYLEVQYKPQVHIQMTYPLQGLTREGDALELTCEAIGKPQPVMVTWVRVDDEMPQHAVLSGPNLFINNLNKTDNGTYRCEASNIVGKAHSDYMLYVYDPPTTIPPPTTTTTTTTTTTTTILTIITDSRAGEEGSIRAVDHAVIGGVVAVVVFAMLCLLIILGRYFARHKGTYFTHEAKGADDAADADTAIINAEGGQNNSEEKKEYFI

Variants of: B1
Details: with cadm1_human CADM1, Q9BY67

Variant | effect of a mutation on the interaction
MWWRVLSLLAWFPLQEASLTNHTETITVEEGQTLTLKCVTSLRKNSSLQWLTPSGFTIFLNEYPALANSKYQLLHHSANQLSITVPNVTLQDEGVYKCLHYSDSVSTKEVKVIVLATPFKPILEASVIRKQNGEEHVVLMCSTMRSKPPPQITWLLGNSMEVSGGTLHEFETDGKKCNTTSTLIIHTYGKNSTVDCIIRHRGLQGRKLVAPFRFEDLVTDEETASDALERNSLSSQDPQQPTSTVSVTEDSSTSEIDKEEKEQTTQDPDLTTEANPQYLGLARKKSGILLLTLVSFLIFILFIIVQLFIMKLRKAHVIWKKENEVSEHTLESYRSRSNNEETSSEEKNGQSSHPMRCMNYITKLYSEAKTKRKENVQHSKLEEKHIQVPESIV [K67A] | decreasing interaction strength
MWWRVLSLLAWFPLQEASLTNHTETITVEEGQTLTLKCVTSLRKNSSLQWLTPSGFTIFLNEYPALKNSKYQLLHHSANQLSITVPNVTLQDEGVYKCLHASDSVSTKEVKVIVLATPFKPILEASVIRKQNGEEHVVLMCSTMRSKPPPQITWLLGNSMEVSGGTLHEFETDGKKCNTTSTLIIHTYGKNSTVDCIIRHRGLQGRKLVAPFRFEDLVTDEETASDALERNSLSSQDPQQPTSTVSVTEDSSTSEIDKEEKEQTTQDPDLTTEANPQYLGLARKKSGILLLTLVSFLIFILFIIVQLFIMKLRKAHVIWKKENEVSEHTLESYRSRSNNEETSSEEKNGQSSHPMRCMNYITKLYSEAKTKRKENVQHSKLEEKHIQVPESIV [Y101A] | decreasing interaction strength
MWWRVLSLLAWFPLQEASLTNHTETITVEEGQTLTLKCVTSLRKNSSLQWLTPSGAAIFLNEYPALANSKYQLLHHSANQLSITVPNVTLQDEGVYKCLHASDSVSTKEVKVIVLATPFKPILEASVIRKQNGEEHVVLMCSTMRSKPPPQITWLLGNSMEVSGGTLHEFETDGKKCNTTSTLIIHTYGKNSTVDCIIRHRGLQGRKLVAPFRFEDLVTDEETASDALERNSLSSQDPQQPTSTVSVTEDSSTSEIDKEEKEQTTQDPDLTTEANPQYLGLARKKSGILLLTLVSFLIFILFIIVQLFIMKLRKAHVIWKKENEVSEHTLESYRSRSNNEETSSEEKNGQSSHPMRCMNYITKLYSEAKTKRKENVQHSKLEEKHIQVPESIV [F56A;T57A;K67A;Y101A] | decreasing interaction strength
MWWRVLSLLAWFPLQEASLTNHTETITVEEGQTLTLKCVTSLRKNSSLQWLTPSGFAIFLNEYPALKNSKYQLLHHSANQLSITVPNVTLQDEGVYKCLHYSDSVSTKEVKVIVLATPFKPILEASVIRKQNGEEHVVLMCSTMRSKPPPQITWLLGNSMEVSGGTLHEFETDGKKCNTTSTLIIHTYGKNSTVDCIIRHRGLQGRKLVAPFRFEDLVTDEETASDALERNSLSSQDPQQPTSTVSVTEDSSTSEIDKEEKEQTTQDPDLTTEANPQYLGLARKKSGILLLTLVSFLIFILFIIVQLFIMKLRKAHVIWKKENEVSEHTLESYRSRSNNEETSSEEKNGQSSHPMRCMNYITKLYSEAKTKRKENVQHSKLEEKHIQVPESIV [T57A] | decreasing interaction strength
MWWRVLSLLAWFPLQEASLTNHTETITVEEGQTLTLKCVTSLRKNSSLQWLTPSGATIFLNEYPALKNSKYQLLHHSANQLSITVPNVTLQDEGVYKCLHYSDSVSTKEVKVIVLATPFKPILEASVIRKQNGEEHVVLMCSTMRSKPPPQITWLLGNSMEVSGGTLHEFETDGKKCNTTSTLIIHTYGKNSTVDCIIRHRGLQGRKLVAPFRFEDLVTDEETASDALERNSLSSQDPQQPTSTVSVTEDSSTSEIDKEEKEQTTQDPDLTTEANPQYLGLARKKSGILLLTLVSFLIFILFIIVQLFIMKLRKAHVIWKKENEVSEHTLESYRSRSNNEETSSEEKNGQSSHPMRCMNYITKLYSEAKTKRKENVQHSKLEEKHIQVPESIV [F56A] | decreasing interaction strength
